Measurements from paper PMC6953191, “OsNAC2 integrates auxin and cytokinin pathways to modulate rice root development”.

Columns and labels:
OsNAC2 [1] = target: T1, OsNAC2 (Oryza sativa L. (rice), UniProt Q7XUV6 1-343); assay: EMSA; increasing OsNAC2; 2.5 mM MgCl2; salmon sperm DNA; 50 mM Tris-HCl pH 8.0, 100 mM KCl, 2.5 mM MgCl2, 0.2 mM DTT, 2 ug salmon sperm DNA, 10% glycerol, 20 uL, 25 C 20 min; probe printed as 200 nmol; 10% PAGE, 0.5x; settings: protein: recombinant; tags: pET-28a vector tag (BamHI/XhoI); chain copies: 2; label: FAM; blunt
T1 sequence: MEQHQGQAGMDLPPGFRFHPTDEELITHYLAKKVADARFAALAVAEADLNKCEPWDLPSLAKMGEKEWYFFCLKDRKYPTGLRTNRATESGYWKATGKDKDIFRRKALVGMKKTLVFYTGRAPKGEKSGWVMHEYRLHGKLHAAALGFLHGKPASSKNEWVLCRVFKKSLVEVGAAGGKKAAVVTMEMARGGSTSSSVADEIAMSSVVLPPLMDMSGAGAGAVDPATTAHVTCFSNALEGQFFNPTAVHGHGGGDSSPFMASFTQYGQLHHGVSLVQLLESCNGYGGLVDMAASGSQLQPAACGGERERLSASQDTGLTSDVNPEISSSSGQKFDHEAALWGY

OsNAC2 [2] = target: T1, OsNAC2; assay: competition EMSA; unlabelled probe weakened binding of FAM probe N1; 50 mM Tris-HCl pH 8.0, 100 mM KCl, 2.5 mM MgCl2, 0.2 mM DTT, 2 ug salmon sperm DNA, 10% glycerol, 20 uL, 25 C 20 min; probe printed as 200 nmol; 10% PAGE, 0.5x; settings: protein: recombinant; tags: pET-28a vector tag (BamHI/XhoI); chain copies: 2; blunt

B1: OsCKX4 promoter-derived 3x CGGCCACGCA probe (dsDNA)
DNA 1: CGGCCACGCACGGCCACGCACGGCCACGCA
DNA 2: TGCGTGGCCGTGCGTGGCCGTGCGTGGCCG
B1: binds (OsNAC2 [1]).

B2: unlabelled 3x CGGCCACGCA competitor (dsDNA)
DNA 1: CGGCCACGCACGGCCACGCACGGCCACGCA
DNA 2: TGCGTGGCCGTGCGTGGCCGTGCGTGGCCG
B2: binds (OsNAC2 [2]).
